Test results as given in publication PMC11722432.

Target: dynein-dynactin complex (pig brain dynein with pig brain dynactin) (pig (endogenous in pig brain)) (UniProt F2Z5G5)
Experiment: negative-stain EM

- Kd: 5.11 µM
Substance: full-length BicdR1 (from UniProt A0JNT9 1-577) (natural protein)
